Measured values taken from patent publication US20230293638A1 (Eli Lilly, published 2023).
Numbered stars: 1 amine (or outer) side, 2 acyl side, 3 side chain; on linkers, the order of the positions; unused ones are H or OH. Square brackets hold non-standard residues; d marks the D form. Side chains are listed from the residue outwards. Ends that are not written are not given here. * marks the point of attachment. C20 diacid = O=C(O)CCCCCCCCCCCCCCCCCCC(=O)*; γGlu = O=C(O)[C@H](CCC(=O)[*:2])N[*:1]; AEEA = NCCOCCOCC(=O)O; Aib = CC(C)(N)C(=O)O

B1: Peptide 41 (peptide)
peptide: Y[Aib]EGTFTSDYSILLDKIAQ[Aib]AFIEYLIEGGPK([AEEA-AEEA-γGlu-C20 diacid])SGAPPPS-NH2
modifications: N-terminus assumed
SMILES: CC[C@H](C)[C@H](NC(=O)[C@H](CCCCN)NC(=O)[C@H](CC(=O)O)NC(=O)[C@H](CC(C)C)NC(=O)[C@H](CC(C)C)NC(=O)[C@@H](NC(=O)[C@H](CO)NC(=O)[C@H](Cc1ccc(O)cc1)NC(=O)[C@H](CC(=O)O)NC(=O)[C@H](CO)NC(=O)[C@@H](NC(=O)[C@H](Cc1ccccc1)NC(=O)[C@@H](NC(=O)CNC(=O)[C@H](CCC(=O)O)NC(=O)C(C)(C)NC(=O)[C@@H](N)Cc1ccc(O)cc1)[C@@H](C)O)[C@@H](C)O)[C@@H](C)CC)C(=O)N[C@@H](C)C(=O)N[C@@H](CCC(N)=O)C(=O)NC(C)(C)C(=O)N[C@@H](C)C(=O)N[C@@H](Cc1ccccc1)C(=O)N[C@H](C(=O)N[C@@H](CCC(=O)O)C(=O)N[C@@H](Cc1ccc(O)cc1)C(=O)N[C@@H](CC(C)C)C(=O)N[C@H](C(=O)N[C@@H](CCC(=O)O)C(=O)NCC(=O)NCC(=O)N1CCC[C@H]1C(=O)N[C@@H](CCCCNC(=O)COCCOCCNC(=O)COCCOCCNC(=O)CC[C@H](NC(=O)CCCCCCCCCCCCCCCCCCC(=O)O)C(=O)O)C(=O)N[C@@H](CO)C(=O)NCC(=O)N[C@@H](C)C(=O)N1CCC[C@H]1C(=O)N1CCC[C@H]1C(=O)N1CCC[C@H]1C(=O)N[C@@H](CO)C(N)=O)[C@@H](C)CC)[C@@H](C)CC
B2: Peptide 47 (peptide)
peptide: Y[Aib]EGTFTSDYSILLDKIAQ[Aib]AFIEYLIEGGPSSGAPPK([AEEA-AEEA-γGlu-C20 diacid])S-NH2
modifications: N-terminus assumed
SMILES: CC[C@H](C)[C@H](NC(=O)[C@H](CCCCN)NC(=O)[C@H](CC(=O)O)NC(=O)[C@H](CC(C)C)NC(=O)[C@H](CC(C)C)NC(=O)[C@@H](NC(=O)[C@H](CO)NC(=O)[C@H](Cc1ccc(O)cc1)NC(=O)[C@H](CC(=O)O)NC(=O)[C@H](CO)NC(=O)[C@@H](NC(=O)[C@H](Cc1ccccc1)NC(=O)[C@@H](NC(=O)CNC(=O)[C@H](CCC(=O)O)NC(=O)C(C)(C)NC(=O)[C@@H](N)Cc1ccc(O)cc1)[C@@H](C)O)[C@@H](C)O)[C@@H](C)CC)C(=O)N[C@@H](C)C(=O)N[C@@H](CCC(N)=O)C(=O)NC(C)(C)C(=O)N[C@@H](C)C(=O)N[C@@H](Cc1ccccc1)C(=O)N[C@H](C(=O)N[C@@H](CCC(=O)O)C(=O)N[C@@H](Cc1ccc(O)cc1)C(=O)N[C@@H](CC(C)C)C(=O)N[C@H](C(=O)N[C@@H](CCC(=O)O)C(=O)NCC(=O)NCC(=O)N1CCC[C@H]1C(=O)N[C@@H](CO)C(=O)N[C@@H](CO)C(=O)NCC(=O)N[C@@H](C)C(=O)N1CCC[C@H]1C(=O)N1CCC[C@H]1C(=O)N[C@@H](CCCCNC(=O)COCCOCCNC(=O)COCCOCCNC(=O)CC[C@H](NC(=O)CCCCCCCCCCCCCCCCCCC(=O)O)C(=O)O)C(=O)N[C@@H](CO)C(N)=O)[C@@H](C)CC)[C@@H](C)CC
B3: Peptide 51 (peptide)
peptide: Y[Aib]EGTFTSDYSILLDKK([AEEA-AEEA-γGlu-C20 diacid])AQ[Aib]AFIEYLIEGG-NH2
modifications: N-terminus assumed
SMILES: CC[C@H](C)[C@H](NC(=O)[C@H](CC(C)C)NC(=O)[C@H](Cc1ccc(O)cc1)NC(=O)[C@H](CCC(=O)O)NC(=O)[C@@H](NC(=O)[C@H](Cc1ccccc1)NC(=O)[C@H](C)NC(=O)C(C)(C)NC(=O)[C@H](CCC(N)=O)NC(=O)[C@H](C)NC(=O)[C@H](CCCCNC(=O)COCCOCCNC(=O)COCCOCCNC(=O)CC[C@H](NC(=O)CCCCCCCCCCCCCCCCCCC(=O)O)C(=O)O)NC(=O)[C@H](CCCCN)NC(=O)[C@H](CC(=O)O)NC(=O)[C@H](CC(C)C)NC(=O)[C@H](CC(C)C)NC(=O)[C@@H](NC(=O)[C@H](CO)NC(=O)[C@H](Cc1ccc(O)cc1)NC(=O)[C@H](CC(=O)O)NC(=O)[C@H](CO)NC(=O)[C@@H](NC(=O)[C@H](Cc1ccccc1)NC(=O)[C@@H](NC(=O)CNC(=O)[C@H](CCC(=O)O)NC(=O)C(C)(C)NC(=O)[C@@H](N)Cc1ccc(O)cc1)[C@@H](C)O)[C@@H](C)O)[C@@H](C)CC)[C@@H](C)CC)C(=O)N[C@@H](CCC(=O)O)C(=O)NCC(=O)NCC(N)=O
B4: Peptide 48 (peptide)
peptide: Y[Aib]EGTFTSDYSILLDKIAQ[Aib]AFIEYLIEGGPSSGAPPPK([AEEA-AEEA-γGlu-C20 diacid])-NH2
modifications: N-terminus assumed
SMILES: CC[C@H](C)[C@H](NC(=O)[C@H](CCCCN)NC(=O)[C@H](CC(=O)O)NC(=O)[C@H](CC(C)C)NC(=O)[C@H](CC(C)C)NC(=O)[C@@H](NC(=O)[C@H](CO)NC(=O)[C@H](Cc1ccc(O)cc1)NC(=O)[C@H](CC(=O)O)NC(=O)[C@H](CO)NC(=O)[C@@H](NC(=O)[C@H](Cc1ccccc1)NC(=O)[C@@H](NC(=O)CNC(=O)[C@H](CCC(=O)O)NC(=O)C(C)(C)NC(=O)[C@@H](N)Cc1ccc(O)cc1)[C@@H](C)O)[C@@H](C)O)[C@@H](C)CC)C(=O)N[C@@H](C)C(=O)N[C@@H](CCC(N)=O)C(=O)NC(C)(C)C(=O)N[C@@H](C)C(=O)N[C@@H](Cc1ccccc1)C(=O)N[C@H](C(=O)N[C@@H](CCC(=O)O)C(=O)N[C@@H](Cc1ccc(O)cc1)C(=O)N[C@@H](CC(C)C)C(=O)N[C@H](C(=O)N[C@@H](CCC(=O)O)C(=O)NCC(=O)NCC(=O)N1CCC[C@H]1C(=O)N[C@@H](CO)C(=O)N[C@@H](CO)C(=O)NCC(=O)N[C@@H](C)C(=O)N1CCC[C@H]1C(=O)N1CCC[C@H]1C(=O)N1CCC[C@H]1C(=O)N[C@@H](CCCCNC(=O)COCCOCCNC(=O)COCCOCCNC(=O)CC[C@H](NC(=O)CCCCCCCCCCCCCCCCCCC(=O)O)C(=O)O)C(N)=O)[C@@H](C)CC)[C@@H](C)CC
B5: Peptide 52 (peptide)
peptide: YXEGTFTSDYSIXLDSKAQXAFIEYLIEGGPSSGAPPPS
modifications: Aib2; αMeL13; K17((2-[2-(2-Amino-ethoxy)-ethoxy]-acetyl)2-(γGlu)-CO-(CH2)18-CO2H); Aib20; C-terminal NH2
B6: Peptide 37 (peptide)
peptide: Y[Aib]EGTFTSDYSILLDKIAQ[Aib]AFIEYLIK([AEEA-AEEA-γGlu-C20 diacid])GGPSSGAPPPS-NH2
modifications: N-terminus assumed
SMILES: CC[C@H](C)[C@H](NC(=O)[C@H](CCCCN)NC(=O)[C@H](CC(=O)O)NC(=O)[C@H](CC(C)C)NC(=O)[C@H](CC(C)C)NC(=O)[C@@H](NC(=O)[C@H](CO)NC(=O)[C@H](Cc1ccc(O)cc1)NC(=O)[C@H](CC(=O)O)NC(=O)[C@H](CO)NC(=O)[C@@H](NC(=O)[C@H](Cc1ccccc1)NC(=O)[C@@H](NC(=O)CNC(=O)[C@H](CCC(=O)O)NC(=O)C(C)(C)NC(=O)[C@@H](N)Cc1ccc(O)cc1)[C@@H](C)O)[C@@H](C)O)[C@@H](C)CC)C(=O)N[C@@H](C)C(=O)N[C@@H](CCC(N)=O)C(=O)NC(C)(C)C(=O)N[C@@H](C)C(=O)N[C@@H](Cc1ccccc1)C(=O)N[C@H](C(=O)N[C@@H](CCC(=O)O)C(=O)N[C@@H](Cc1ccc(O)cc1)C(=O)N[C@@H](CC(C)C)C(=O)N[C@H](C(=O)N[C@@H](CCCCNC(=O)COCCOCCNC(=O)COCCOCCNC(=O)CC[C@H](NC(=O)CCCCCCCCCCCCCCCCCCC(=O)O)C(=O)O)C(=O)NCC(=O)NCC(=O)N1CCC[C@H]1C(=O)N[C@@H](CO)C(=O)N[C@@H](CO)C(=O)NCC(=O)N[C@@H](C)C(=O)N1CCC[C@H]1C(=O)N1CCC[C@H]1C(=O)N1CCC[C@H]1C(=O)N[C@@H](CO)C(N)=O)[C@@H](C)CC)[C@@H](C)CC
B7: Peptide 50 (peptide)
peptide: Y[Aib]EGTFTSDYSILLDKK([AEEA-AEEA-γGlu-C20 diacid])AQ[Aib]AFIEYLIEGGPSSG-NH2
modifications: N-terminus assumed
SMILES: CC[C@H](C)[C@H](NC(=O)[C@H](CC(C)C)NC(=O)[C@H](Cc1ccc(O)cc1)NC(=O)[C@H](CCC(=O)O)NC(=O)[C@@H](NC(=O)[C@H](Cc1ccccc1)NC(=O)[C@H](C)NC(=O)C(C)(C)NC(=O)[C@H](CCC(N)=O)NC(=O)[C@H](C)NC(=O)[C@H](CCCCNC(=O)COCCOCCNC(=O)COCCOCCNC(=O)CC[C@H](NC(=O)CCCCCCCCCCCCCCCCCCC(=O)O)C(=O)O)NC(=O)[C@H](CCCCN)NC(=O)[C@H](CC(=O)O)NC(=O)[C@H](CC(C)C)NC(=O)[C@H](CC(C)C)NC(=O)[C@@H](NC(=O)[C@H](CO)NC(=O)[C@H](Cc1ccc(O)cc1)NC(=O)[C@H](CC(=O)O)NC(=O)[C@H](CO)NC(=O)[C@@H](NC(=O)[C@H](Cc1ccccc1)NC(=O)[C@@H](NC(=O)CNC(=O)[C@H](CCC(=O)O)NC(=O)C(C)(C)NC(=O)[C@@H](N)Cc1ccc(O)cc1)[C@@H](C)O)[C@@H](C)O)[C@@H](C)CC)[C@@H](C)CC)C(=O)N[C@@H](CCC(=O)O)C(=O)NCC(=O)NCC(=O)N1CCC[C@H]1C(=O)N[C@@H](CO)C(=O)N[C@@H](CO)C(=O)NCC(N)=O
B8: Peptide 46 (peptide)
peptide: Y[Aib]EGTFTSDYSILLDKIAQ[Aib]AFIEYLIEGGPSSGAPK([AEEA-AEEA-γGlu-C20 diacid])PS-NH2
modifications: N-terminus assumed
SMILES: CC[C@H](C)[C@H](NC(=O)[C@H](CCCCN)NC(=O)[C@H](CC(=O)O)NC(=O)[C@H](CC(C)C)NC(=O)[C@H](CC(C)C)NC(=O)[C@@H](NC(=O)[C@H](CO)NC(=O)[C@H](Cc1ccc(O)cc1)NC(=O)[C@H](CC(=O)O)NC(=O)[C@H](CO)NC(=O)[C@@H](NC(=O)[C@H](Cc1ccccc1)NC(=O)[C@@H](NC(=O)CNC(=O)[C@H](CCC(=O)O)NC(=O)C(C)(C)NC(=O)[C@@H](N)Cc1ccc(O)cc1)[C@@H](C)O)[C@@H](C)O)[C@@H](C)CC)C(=O)N[C@@H](C)C(=O)N[C@@H](CCC(N)=O)C(=O)NC(C)(C)C(=O)N[C@@H](C)C(=O)N[C@@H](Cc1ccccc1)C(=O)N[C@H](C(=O)N[C@@H](CCC(=O)O)C(=O)N[C@@H](Cc1ccc(O)cc1)C(=O)N[C@@H](CC(C)C)C(=O)N[C@H](C(=O)N[C@@H](CCC(=O)O)C(=O)NCC(=O)NCC(=O)N1CCC[C@H]1C(=O)N[C@@H](CO)C(=O)N[C@@H](CO)C(=O)NCC(=O)N[C@@H](C)C(=O)N1CCC[C@H]1C(=O)N[C@@H](CCCCNC(=O)COCCOCCNC(=O)COCCOCCNC(=O)CC[C@H](NC(=O)CCCCCCCCCCCCCCCCCCC(=O)O)C(=O)O)C(=O)N1CCC[C@H]1C(=O)N[C@@H](CO)C(N)=O)[C@@H](C)CC)[C@@H](C)CC

Target: human GLP-1 receptor (human, UniProt P43220 24-463)
Test: cell-based or functional assay

Row | Binder | hGLPIR cAMP EC50 ratio
1 | B1 | 0.0637
2 | B2 | 0.089
3 | B3 | 0.426
4 | B4 | 0.0966
5 | B5 | 0.514
6 | B6 | 0.0533
7 | B7 | 0.675
8 | B8 | 0.0969
